From paper PMC7560827, “Immunodominant proteins P1 and P40/P90 from human pathogen Mycoplasma pneumoniae” (Nature Communications, 2020) come the findings set out here.

Holding throughout (settings): both partners purified
For assay [1], the target named is T1, P90N polypeptide (Ala446 to the C-end of P40/P90N) (Mycoplasma pneumoniae, UniProt Q50341 446-1003).
T1 construct: source: E. coli B834 (DE3), cleavage product in purified P40/P90N samples
T1 sequence: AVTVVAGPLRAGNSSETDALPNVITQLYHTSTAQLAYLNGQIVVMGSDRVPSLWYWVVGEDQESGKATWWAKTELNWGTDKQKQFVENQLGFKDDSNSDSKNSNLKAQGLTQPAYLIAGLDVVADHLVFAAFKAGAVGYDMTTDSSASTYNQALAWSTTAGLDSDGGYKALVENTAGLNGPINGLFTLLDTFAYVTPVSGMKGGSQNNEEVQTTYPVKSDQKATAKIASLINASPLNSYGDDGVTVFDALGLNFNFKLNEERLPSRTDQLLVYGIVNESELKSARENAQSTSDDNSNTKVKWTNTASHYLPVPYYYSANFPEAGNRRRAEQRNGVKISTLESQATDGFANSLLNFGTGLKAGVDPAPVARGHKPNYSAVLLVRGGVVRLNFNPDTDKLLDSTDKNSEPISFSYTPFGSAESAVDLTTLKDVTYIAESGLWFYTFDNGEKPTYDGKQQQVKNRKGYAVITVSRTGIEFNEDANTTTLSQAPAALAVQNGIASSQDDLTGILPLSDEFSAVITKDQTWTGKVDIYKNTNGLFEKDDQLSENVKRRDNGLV
Nature of the assay: SEC-MALS.

Assay [2] has as its target P40/P90 long construct (residues 23-1114) (Mycoplasma pneumoniae, UniProt Q50341 23-1114). Nature of the assay: SEC.
Assay [3] concerns the target P40/P90N (short construct of P40/P90, residues Ser23-Val1003) (Mycoplasma pneumoniae, UniProt Q50341 23-1003). In words: SEC. A general note: Size exclusion chromatography separates by hydrodynamic size, large species first.

B1: P40 polypeptide (from the N-end of P40/P90N to Arg445) (domain or fragment)
chain: SLANTYLLQDHNTLTPYTPFTTPLNGGLDVVRAAHLHPSYELVDWKRVGDTKLVALVRSALVRVKFQDTTSSDQSNTNQNALSFDTQESQKALNGSQSGSSDTSGSNSQDFASYVLIFKAAPRATWVFERKIKLALPYVKQESQGSGDQGSNGKGSLYKTLQDLLVEQPVTPYTPNAGLARVNGVAQDTVHFGSGQESSWNSQRSQKGLKNNPGPKAVTGFKLDKGRAYRKLNESWPVYEPLDSTKEGKGKDESSWKNSEKTTAENDAPLVGMVGSGAAGSASSLQGNGSNSSGLKSLLRSAPVSVPPSSTSNQTLSLSNPAPVGPQAVVSQPAGGATAAVSVNRTASDTATFSKYLNTAQALHQMGVIVPGLEKWGGNNGTGVVASRQDATSTNLPHAAGASQTGLGTGSPREPALTATSQR
notes: source: E. coli B834 (DE3), cleavage product in purified P40/P90N samples
B1: in assay [1], the binding result is given as “binds”.

B2: P1 extracellular region (residues Thr29-Asp1521) (domain or fragment)
chain: TVVGHFTSTTTTLKRQQFSYTRPDEVALRHTNAINPRLTPWTYRNTSFSSLPLTGENPGAWALVRDNSAKGITAGSGSQQTTYDPTRTEAALTASTTFALRRYDLAGRALYDLDFSKLNPQTPTRDQTGQITFNPFGGFGLSGAAPQQWNEVKNKVPVEVAQDPSNPYRFAVLLVPRSVVYYEQLQRGLGLPQQRTESGQNTSTTGAMFGLKVKNAEADTAKSNEKLQGAEATGSSTTSGSGQSTQRGGSSGDTKVKALKIEVKKKSDSEDNGQLQLEKNDLANAPIKRSEESGQSVQLKADDFGTALSSSGSGGNSNPGSPTPWRPWLATEQIHKDLPKWSASILILYDAPYARNRTAIDRVDHLDPKAMTANYPPSWRTPKWNHHGLWDWKARDVLLQTTGFFNPRRHPEWFDGGQTVADNEKTGFDVDNSENTKQGFQKEADSDKSAPIALPFEAYFANIGNLTWFGQALLVFGGNGHVTKSAHTAPLSIGVFRVRYNATGTSATVTGWPYALLFSGMVNKQTDGLKDLPFNNNRWFEYVPRMAVAGAKFVGRELVLAGTITMGDTATVPRLLYDELESNLNLVAQGQGLLREDLQLFTPYGWANRPDLPIGAWSSSSSSSHNAPYYFHNNPDWQDRPIQNVVDAFIKPWEDKNGKDDAKYIYPYRYSGMWAWQVYNWSNKLTDQPLSADFVNENAYQPNSLFAAILNPELLAALPDKVKYGKENEFAANEYERFNQKLTVAPTQGTNWSHFSPTLSRFSTGFNLVGSVLDQVLDYVPWIGNGYRYGNNHRGVDDITAPQTSAGSSSGISTNTSGSRSFLPTFSNIGVGLKANVQATLGGSQTMITGGSPRRTLDQANLQLWTGAGWRNDKASSGQSDENHTKFTSATGMDQQGQSGTSAGNPDSLKQDNISKSGDSLTTQDGNAIDQQEATNYTNLPPNLTPTADWPNALSFTNKNNAQRAQLFLRGLLGSIPVLVNRSGSDSNKFQATDQKWSYTDLHSDQTKLNLPAYGEVNGLLNPALVETYFGNTRAGGSGSNTTSSPGIGFKIPEQNNDSKATLITPGLAWTPQDVGNLVVSGTTVSFQLGGWLVTFTDFVKPRAGYLGLQLTGLDASDATQRALIWAPRPWAAFRGSWVNRLGRVESVWDLKGVWADQAQSDSQGSTTTATRNALPEHPNALAFQVSVVEASAYKPNTSSGQTQSTNSSPYLHLVKPKKVTQSDKLDDDLKNLLDPNQVRTKLRQSFGTDHSTQPQPQSLKTTTPVFGTSSGNLSSVLSGGGAGGGSSGSGQSGVDLSPVEKVSGWLVGQLPSTSDGNTSSTNNLAPNTNTGNDVVGVGRLSESNAAKMNDDVDGIVRTPLAELLDGEGQTADTGPQSVKFKSPDQIDFNRLFTHPVTDLFDPVTMLVYDQYIPLFIDIPASVNPKMVRLKVLSFDTNEQSLGLRLEFFKPDQDTQPNNNVQVNPNNGDFLPLLTASSQGPQTLFSPFNQWPD
notes: source: E. coli B834 (DE3), purified (HisTrap, Superdex 200)
In the case of B2, the binding result in assay [2] and in assay [3] was “binds” throughout.
